These results are taken from patent US20140087995A1 (published 2014).

Numbered stars: 1 amine (or outer) side, 2 acyl side, 3 side chain; on linkers, the order of the positions; unused ones are H or OH. Bridge positions count the residues as written; N and C are the ends. Side chains are listed from the residue outwards. Ends that are not written are not given here. * marks the point of attachment. C20 diacid = O=C(O)CCCCCCCCCCCCCCCCCCC(=O)*; γGlu = O=C(O)[C@H](CCC(=O)[*:2])N[*:1]; AEEA = NCCOCCOCC(=O)O

Test [1] concerns the target T1, human calcitonin receptor (human, UniProt P30988 25-474).
T1 construct: whole, on cells; Assay used cell membranes, not intact cells; also called hCTR; hCT
T1 sequence (looked up): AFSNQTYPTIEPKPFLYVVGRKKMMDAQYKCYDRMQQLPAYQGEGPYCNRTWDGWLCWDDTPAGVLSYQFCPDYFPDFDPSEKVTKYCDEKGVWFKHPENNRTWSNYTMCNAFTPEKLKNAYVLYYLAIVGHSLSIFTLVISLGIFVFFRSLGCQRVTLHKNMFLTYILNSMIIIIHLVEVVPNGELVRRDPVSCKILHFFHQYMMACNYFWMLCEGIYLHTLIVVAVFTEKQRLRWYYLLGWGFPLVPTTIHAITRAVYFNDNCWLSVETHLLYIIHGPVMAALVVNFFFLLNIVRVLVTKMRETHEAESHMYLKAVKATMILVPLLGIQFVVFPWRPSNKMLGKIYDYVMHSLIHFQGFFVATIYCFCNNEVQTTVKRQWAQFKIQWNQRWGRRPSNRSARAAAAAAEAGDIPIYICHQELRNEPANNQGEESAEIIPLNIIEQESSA
The test can be described thus: ratio IC50 hCTR / IC50 hAmylin-R (reference: human amylin receptor), SPA competition assays. The procedure: The resulting pellet was resuspended, homogenized and centrifuged (20.000 rpm, 15 min) in a buffer containing 20 mM Na-HEPES and 0.1 mM EDTA (pH 7.4, buffer 2). The resulting pellet was resuspended in buffer 2 and protein concentration was measured (BCA protein Assay, Pierce). The homogenate was kept cold during the whole procedure. The membranes were kept at −80° C. until use. The assay was performed in a 384 well Optiplate (PerkinElmer) in a total volume of 40 ul. Membranes were mixed with SPA beads. Final concentration of membranes 35 ng/μL final and SPA beads was 0.05 mg/well. Test-compounds were dissolved in DMSO and further diluted in assay buffer (50 mM Hepes, pH 7.4, 1 mM CaCl2, 5 mM MgCl₂, 0.1% OA and 0.02% Tween20). […] The final mixture was incubated with shaking at 400 rpm for 120 min at 25° C. prior to centrifugation (1500 rpm, 10 min). Samples were analyzed on TopCounter™ (Packard). The IC₅₀ was calculated using (one site binding competition analysis) GraphPad Prism5 as a measure of receptor affinity.
Membranes were prepared in the following way; the cells were rinsed with PBS and incubated with Versene for approximately 5 min before harvesting. The cells were flushed with PBS and the cell-suspension was centrifuged for 5 min at 1000 rpm. Cells were homogenized (Ultrathurrax) in a buffer containing 20 mM Na-HEPES and 10 mM EDTA (pH 7.4) and centrifuged at 20.000 rpm for 15 min. The resulting pellet was resuspended, homogenized and centrifuged (20.000 rpm, 15 min) in a buffer containing 20 mM Na-HEPES and 0.1 mM EDTA (pH 7.4, buffer 2). The resulting pellet was resuspended in buffer 2 and protein concentration was measured (BCA protein Assay, Pierce). The homogenate was kept cold during the whole procedure. The membranes were kept at −80° C. until use. Assay was performed in a 384 well Optiplate (PerkinElmer) in a total volume of 40 ul. Membranes were mixed with SPA beads.

Test [2] addresses T1, human calcitonin receptor. The test can be described thus: SPA competition with 125I-calcitonin on membranes of BHK cells with human calcitonin receptor (Assay VII). On the procedure: Membranes were prepared in the following way; the cells were rinsed with PBS and incubated with Versene for approximately 5 min before harvesting. The cells were flushed with PBS and the cell-suspension was centrifuged for 5 min at 1000 rpm. Cells were homogenized (Ultrathurrax) in a buffer containing 20 mM Na-HEPES and 10 mM EDTA (pH 7.4) and centrifuged at 20.000 rpm for 15 min. The resulting pellet was resuspended, homogenized and centrifuged (20.000 rpm, 15 min) in a buffer containing 20 mM Na-HEPES and 0.1 mM EDTA (pH 7.4, buffer 2). The resulting pellet was resuspended in buffer 2 and protein concentration was measured (BCA protein Assay, Pierce). The homogenate was kept cold during the whole procedure. The membranes were kept at −80° C. until use. Assay was performed in a 384 well Optiplate (PerkinElmer) in a total volume of 40 ul. Membranes were mixed with SPA beads. Final concentration of membranes 35 ng/μL final and Final concentration of SPA beads was 0.05 mg/well. Test-compounds were dissolved in DMSO and further diluted in assay buffer (50 mM Hepes, pH 7.4, 1 mM CaCl2, 5 mM MgCl₂, 0.1% OA and 0.02% Tween20). […] The final mixture was incubated for 120 min with shaking at 400 rpm at 25° C. prior to centrifugation (1500 rpm, 10 min). Samples were analyzed on TopCounter™ (Packard). The […] was calculated using (one site binding competition analysis) GraphPad Prism5 as a measure of receptor affinity.

The target in test [3] is T2, human amylin receptor (amylin 3(a) receptor: human calcitonin receptor with RAMP-3) (human, UniProt P30988 25-474; O60896 24-148).
T2 construct: whole, on cells; Assay used cell membranes of the Amylin 3(a)/CRE-luc BHK cells, not intact cells; also called hAmylin-R; hAmylinR
T2 sequence (looked up) 1: T1 sequence (looked up)
T2 sequence (looked up) 2: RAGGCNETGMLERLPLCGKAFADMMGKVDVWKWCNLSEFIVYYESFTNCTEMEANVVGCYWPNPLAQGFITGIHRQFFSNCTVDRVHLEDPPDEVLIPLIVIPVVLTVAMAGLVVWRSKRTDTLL
Briefly: SPA competition with 125I-rat amylin on membranes of BHK cells with human calcitonin receptor and RAMP-3 (Assay V). The procedure:
The binding assay was performed using scintillation proximity assay (SPA) beads (RPNQ0001) from PerkinElmer and cell membranes from the Amylin 3(a)/CRE-luc cells (as described in Assay (II)) were used. Membranes were prepared in the following way; the cells were rinsed with PBS and incubated with Versene for approximately 5 min before harvesting. The cells were flushed with PBS and the cell-suspension was centrifuged for 5 min at 1000 rpm. Cells were homogenized (ultrathurrax) in a buffer containing 20 mM Na-HEPES and 10 mM EDTA (pH 7.4) and centrifuged at 20.000 rpm for 15 min. The resulting pellet was resuspended, homogenized and centrifuged (20.000 rpm, 15 min) in a buffer containing 20 mM Na-HEPES and 0.1 mM EDTA (pH 7.4, buffer 2). The resulting pellet was resuspended in buffer 2 and protein concentration was measured (BCA protein Assay, Pierce). The homogenate was kept cold during the whole procedure. The membranes were kept at −80° C. until use. The assay was performed in a 384 well Optiplate (PerkinElmer) in a total volume of 40 ul. Membranes were mixed with SPA beads. Final concentration of membranes 35 ng/μL final and SPA beads was 0.05 mg/well. Test-compounds were dissolved in DMSO and further diluted in assay buffer (50 mM Hepes, pH 7.4, 1 mM CaCl2, 5 mM MgCl₂, 0.1% OA and 0.02% Tween20). […] The final mixture was incubated with shaking at 400 rpm for 120 min at 25° C. prior to centrifugation (1500 rpm, 10 min). Samples were analyzed on TopCounter™ (Packard). The IC₅₀ was calculated using (one site binding competition analysis) GraphPad Prism5 as a measure of receptor affinity.

B1: N^ε1-[2-[2-[2-[[2-[2-[2-[[(4S)-4-carboxy-4-(19-carboxynonadecanoylamino)butanoyl]amino]ethoxy]ethoxy]acetyl]amino]ethoxy]ethoxy]acetyl]-[Arg17,Pro21,Pro27,Pro31 … (peptide)
peptide: K([AEEA-AEEA-γGlu-C20 diacid])CNTATCATQRLANFLRHSSPNFGAIPSSTPVGSNTY-NH2
modifications: disulfide 2-7; N-terminus assumed
SMILES: CC[C@H](C)[C@H](NC(=O)[C@H](C)NC(=O)CNC(=O)[C@H](Cc1ccccc1)NC(=O)[C@H](CC(N)=O)NC(=O)[C@@H]1CCCN1C(=O)[C@H](CO)NC(=O)[C@H](CO)NC(=O)[C@H](Cc1c[nH]cn1)NC(=O)[C@H](CCCNC(=N)N)NC(=O)[C@H](CC(C)C)NC(=O)[C@H](Cc1ccccc1)NC(=O)[C@H](CC(N)=O)NC(=O)[C@H](C)NC(=O)[C@H](CC(C)C)NC(=O)[C@H](CCCNC(=N)N)NC(=O)[C@H](CCC(N)=O)NC(=O)[C@@H](NC(=O)[C@H](C)NC(=O)[C@@H]1CSSC[C@H](NC(=O)[C@@H](N)CCCCNC(=O)COCCOCCNC(=O)COCCOCCNC(=O)CC[C@H](NC(=O)CCCCCCCCCCCCCCCCCCC(=O)O)C(=O)O)C(=O)N[C@@H](CC(N)=O)C(=O)N[C@@H]([C@@H](C)O)C(=O)N[C@@H](C)C(=O)N[C@@H]([C@@H](C)O)C(=O)N1)[C@@H](C)O)C(=O)N1CCC[C@H]1C(=O)N[C@@H](CO)C(=O)N[C@@H](CO)C(=O)N[C@H](C(=O)N1CCC[C@H]1C(=O)N[C@H](C(=O)NCC(=O)N[C@@H](CO)C(=O)N[C@@H](CC(N)=O)C(=O)N[C@H](C(=O)N[C@@H](Cc1ccc(O)cc1)C(N)=O)[C@@H](C)O)C(C)C)[C@@H](C)O
notes: also called compound 96
Regarding B1, in test [1], the “Ratio hCT/hAmylin binding” value amounted to 79.6. In addition, the figures for the IC50 in test [2] and in test [3] were 13.2 nM and 0.166 nM, respectively.

B2: N^ε1-[2-[2-[2-[[(4S)-4-carboxy-4-(19-carboxynonadecanoylamino)butanoyl]amino]ethoxy]ethoxy]acetyl]-[Arg14,Arg17,Pro21,Pro27]-h-amylin (peptide)
peptide: K([AEEA-γGlu-C20 diacid])CNTATCATQRLARFLRHSSPNFGAIPSSTNVGSNTY-NH2
modifications: disulfide 2-7; N-terminus assumed
SMILES: CC[C@H](C)[C@H](NC(=O)[C@H](C)NC(=O)CNC(=O)[C@H](Cc1ccccc1)NC(=O)[C@H](CC(N)=O)NC(=O)[C@@H]1CCCN1C(=O)[C@H](CO)NC(=O)[C@H](CO)NC(=O)[C@H](Cc1c[nH]cn1)NC(=O)[C@H](CCCNC(=N)N)NC(=O)[C@H](CC(C)C)NC(=O)[C@H](Cc1ccccc1)NC(=O)[C@H](CCCNC(=N)N)NC(=O)[C@H](C)NC(=O)[C@H](CC(C)C)NC(=O)[C@H](CCCNC(=N)N)NC(=O)[C@H](CCC(N)=O)NC(=O)[C@@H](NC(=O)[C@H](C)NC(=O)[C@@H]1CSSC[C@H](NC(=O)[C@@H](N)CCCCNC(=O)COCCOCCNC(=O)CC[C@H](NC(=O)CCCCCCCCCCCCCCCCCCC(=O)O)C(=O)O)C(=O)N[C@@H](CC(N)=O)C(=O)N[C@@H]([C@@H](C)O)C(=O)N[C@@H](C)C(=O)N[C@@H]([C@@H](C)O)C(=O)N1)[C@@H](C)O)C(=O)N1CCC[C@H]1C(=O)N[C@@H](CO)C(=O)N[C@@H](CO)C(=O)N[C@H](C(=O)N[C@@H](CC(N)=O)C(=O)N[C@H](C(=O)NCC(=O)N[C@@H](CO)C(=O)N[C@@H](CC(N)=O)C(=O)N[C@H](C(=O)N[C@@H](Cc1ccc(O)cc1)C(N)=O)[C@@H](C)O)C(C)C)[C@@H](C)O
notes: also called compound 82
Take B2: the “Ratio hCT/hAmylin binding” value in test [1] was 140. Further, the IC50 in test [2] turned out to be 88.8 nM; in test [3], 0.636 nM.

One may read the IC50 as the concentration that inhibits the measured activity by half.
